Measured values taken from the Immune Epitope Database (IEDB).
One block for each sequence: values may come before it.

What was measured:
[1] = biological target: HLA-A*01:01; experiment: IEDB peptide-MHC binding, purified MHC/competitive/fluorescence; filed as Kd, often an IC50 or EC50 that approximates it; ≥ and ≤ were set here for values at or beyond the usual limits of such assays; conditions: source organism: Human immunodeficiency virus 1
[2] = biological target: HLA-A*02:03; experiment: as above; conditions: source organism: Human immunodeficiency virus 1
[3] = biological target: HLA-A*02:06; experiment: as above
[4] = biological target: HLA-A*11:01; experiment: as above; conditions: source organism: Human immunodeficiency virus 1
[5] = biological target: HLA-A*26:02; experiment: as above
[6] = biological target: HLA-A*30:01; experiment: as above; conditions: source organism: Human immunodeficiency virus 1
[7] = biological target: HLA-A*31:01; experiment: as above; conditions: source organism: Human immunodeficiency virus 1
[8] = biological target: HLA-A*68:02; experiment: as above
[9] = biological target: HLA-A*69:01; experiment: as above
[10] = biological target: HLA-B*08:01; experiment: as above; conditions: source organism: Human immunodeficiency virus 1
[11] = biological target: HLA-B*15:17; experiment: as above; conditions: source organism: Human immunodeficiency virus 1
[12] = biological target: HLA-B*18:01; experiment: as above; conditions: source organism: Human immunodeficiency virus 1
[13] = biological target: HLA-B*35:01; experiment: as above; conditions: source organism: Human immunodeficiency virus 1
[14] = biological target: HLA-B*39:01; experiment: as above; conditions: source organism: Human immunodeficiency virus 1
[15] = biological target: HLA-B*57:01; experiment: as above; conditions: source organism: Human immunodeficiency virus 1
[16] = biological target: HLA-B*58:01; experiment: as above; conditions: source organism: Human immunodeficiency virus 1
[17] = biological target: HLA-A*01:01; experiment: IEDB peptide-MHC binding, purified MHC/direct/fluorescence; filed as Kd, often an IC50 or EC50 that approximates it; ≥ and ≤ were set here for values at or beyond the usual limits of such assays
[18] = biological target: HLA-A*02:01; experiment: as above
[19] = biological target: HLA-A*03:01; experiment: as above
[20] = biological target: HLA-A*11:01; experiment: as above
[21] = biological target: HLA-A*24:02; experiment: as above; conditions: source organism: Escherichia coli O157:H7
[22] = biological target: HLA-A*69:01; experiment: as above
[23] = biological target: HLA-B*07:02; experiment: as above
[24] = biological target: HLA-B*15:01; experiment: as above
[25] = biological target: HLA-B*18:01; experiment: as above; conditions: source organism: Escherichia coli O157:H7
[26] = biological target: HLA-B*27:05; experiment: as above
[27] = biological target: HLA-B*40:01; experiment: as above
[28] = biological target: HLA-B*44:02; experiment: as above
[29] = biological target: HLA-B*58:01; experiment: as above
[30] = biological target: HLA-C*03:03; experiment: as above; conditions: source organism: Escherichia coli O157:H7 str. EDL933
[31] = biological target: HLA-A*02:50; experiment: IEDB peptide-MHC binding, purified MHC/competitive/fluorescence; filed as Kd, often an IC50 or EC50 that approximates it; ≥ and ≤ were set here for values at or beyond the usual limits of such assays
[32] = biological target: HLA-A*02:16; experiment: IEDB peptide-MHC binding, purified MHC/direct/fluorescence; filed as Kd, often an IC50 or EC50 that approximates it; ≥ and ≤ were set here for values at or beyond the usual limits of such assays; conditions: source organism: Mycobacterium tuberculosis
[33] = biological target: HLA-A*26:01; experiment: as above
[34] = biological target: HLA-A*31:01; experiment: as above
[35] = biological target: HLA-B*08:01; experiment: as above
[36] = biological target: HLA-B*15:02; experiment: as above
[37] = biological target: HLA-B*35:01; experiment: as above
[38] = biological target: HLA-B*46:01; experiment: as above
[39] = biological target: HLA-B*15:17; experiment: as above; conditions: source organism: Escherichia coli O157:H7
[40] = biological target: HLA-B*48:01; experiment: as above; conditions: source organism: Escherichia coli O157:H7
[41] = biological target: HLA-B*57:01; experiment: as above; conditions: source organism: Escherichia coli O157:H7
[42] = biological target: HLA-B*15:01; experiment: IEDB peptide-MHC binding, purified MHC/competitive/fluorescence; filed as Kd, often an IC50 or EC50 that approximates it; ≥ and ≤ were set here for values at or beyond the usual limits of such assays; conditions: source organism: Escherichia coli
[43] = source organism: Human immunodeficiency virus 1
[44] = source organism: Escherichia coli O157:H7
[45] = source organism: Mycobacterium tuberculosis
[46] = source organism: Vibrio vulnificus
[47] = source organism: Escherichia coli
[48] = source organism: Listeria monocytogenes serotype 4b str. H7858
[49] = source organism: Listeria monocytogenes
[50] = source organism: Giardia lamblia ATCC 50803

Sequence: KSLFNTVATLY
- Kd [1]: 2.11 µM
- Kd [2]: 0.19 µM
- Kd [3, 43]: 0.155 µM
- Kd [4]: 0.233 µM
- Kd [5, 43]: ≥ 20 µM
- Kd [6]: ≥ 20 µM
- Kd [7]: ≥ 20 µM
- Kd [8, 43]: 3.47 µM
- Kd [9, 43]: 2.84 µM
- Kd [10]: ≥ 20 µM
- Kd [11]: 0.0038 µM
- Kd [12]: 0.242 µM
- Kd [13]: 2.41 µM
- Kd [14]: ≥ 20 µM
- Kd [15]: 0.235 µM
- Kd [16]: 0.0028 µM

- Kd [17, 44]: ≥ 20 µM
- Kd [18, 44]: 0.0021 µM
- Kd [19, 44]: ≥ 20 µM
- Kd [20, 44]: ≥ 20 µM
- Kd [21]: ≥ 20 µM
- Kd [22, 44]: 0.0036 µM
- Kd [23, 44]: ≥ 20 µM
- Kd [24, 44]: 1.71 µM
- Kd [25]: ≥ 20 µM
- Kd [26, 44]: ≥ 20 µM
- Kd [27, 44]: ≥ 20 µM
- Kd [28, 44]: ≥ 20 µM
- Kd [29, 44]: ≥ 20 µM
- Kd [30]: ≥ 20 µM
- Kd ([31]; source organism: Escherichia coli O157:H7 str. EDL933): ≤ 0.0001 µM
Sequence: YLFQWNDNV

Sequence: LLLRPFWPA
- Kd [18, 45]: 0.113 µM
- Kd [32]: 0.01 µM
- Kd [22, 45]: 0.0303 µM
- Kd [31, 45]: 0.0091 µM

Sequence: IQTHCEVGY
- Kd [17, 46]: ≥ 20 µM
- Kd [18, 46]: ≥ 20 µM
- Kd [19, 46]: ≥ 20 µM
- Kd [20, 46]: ≥ 20 µM
- Kd [33, 46]: ≥ 20 µM
- Kd [34, 46]: ≥ 20 µM
- Kd [22, 46]: ≥ 20 µM
- Kd [23, 46]: ≥ 20 µM
- Kd [35, 46]: ≥ 20 µM
- Kd [24, 46]: 0.285 µM
- Kd [36, 46]: ≥ 20 µM
- Kd [26, 46]: ≥ 20 µM
- Kd [37, 46]: 0.94 µM
- Kd [27, 46]: ≥ 20 µM
- Kd [28, 46]: ≥ 20 µM
- Kd [38, 46]: ≥ 20 µM
- Kd [29, 46]: ≥ 20 µM

- Kd [17, 44]: ≥ 20 µM
- Kd [18, 44]: ≥ 20 µM
- Kd [19, 44]: ≥ 20 µM
- Kd [20, 44]: ≥ 20 µM
- Kd [34, 44]: ≥ 20 µM
- Kd [23, 44]: ≥ 20 µM
- Kd [39]: ≥ 20 µM
- Kd [26, 44]: ≥ 20 µM
- Kd [27, 44]: ≥ 20 µM
- Kd [38, 44]: ≥ 20 µM
- Kd [40]: ≥ 20 µM
- Kd [41]: ≥ 20 µM
- Kd [29, 44]: ≥ 20 µM
- Kd [3, 47]: 0.846 µM
- Kd [5, 47]: ≥ 20 µM
- Kd [8, 47]: ≥ 20 µM
- Kd [9, 47]: ≥ 20 µM
- Kd [42]: 0.863 µM
Sequence: EQRLIDICV

Sequence: LMKAPGTYH
- Kd [23, 48]: ≥ 20 µM
- Kd [24, 49]: 0.0668 µM
- Kd [36, 49]: 0.258 µM
- Kd [37, 48]: ≥ 20 µM
- Kd [38, 49]: 4.83 µM

Sequence: LLPYPIAGC
- Kd [17, 50]: ≥ 20 µM
- Kd [18, 50]: 5.1 µM
- Kd [19, 50]: ≥ 20 µM
- Kd [20, 50]: ≥ 20 µM
- Kd [33, 50]: ≥ 20 µM
- Kd [34, 50]: ≥ 20 µM
- Kd [22, 50]: 4.2 µM
- Kd [23, 50]: ≥ 20 µM
- Kd [35, 50]: ≥ 20 µM
- Kd [24, 50]: ≥ 20 µM
- Kd [26, 50]: ≥ 20 µM
- Kd [27, 50]: ≥ 20 µM
- Kd [28, 50]: ≥ 20 µM
- Kd [29, 50]: ≥ 20 µM
- Kd ([31]; source organism: Giardia intestinalis ATCC 50581): 0.0235 µM
